One data set deals with Ikaros (UniProt Q03267). Description: cell_activity. To be noted: NIH3T3 reporter.
The target of the next data set is Helios (Mus musculus) (UniProt P81183). Description: cell_activity. The following applies: NIH3T3 reporter; requires Ikaros sites.
Helios (Mus musculus), sequence (P81183 other isoform, or with tags, fused parts or gaps): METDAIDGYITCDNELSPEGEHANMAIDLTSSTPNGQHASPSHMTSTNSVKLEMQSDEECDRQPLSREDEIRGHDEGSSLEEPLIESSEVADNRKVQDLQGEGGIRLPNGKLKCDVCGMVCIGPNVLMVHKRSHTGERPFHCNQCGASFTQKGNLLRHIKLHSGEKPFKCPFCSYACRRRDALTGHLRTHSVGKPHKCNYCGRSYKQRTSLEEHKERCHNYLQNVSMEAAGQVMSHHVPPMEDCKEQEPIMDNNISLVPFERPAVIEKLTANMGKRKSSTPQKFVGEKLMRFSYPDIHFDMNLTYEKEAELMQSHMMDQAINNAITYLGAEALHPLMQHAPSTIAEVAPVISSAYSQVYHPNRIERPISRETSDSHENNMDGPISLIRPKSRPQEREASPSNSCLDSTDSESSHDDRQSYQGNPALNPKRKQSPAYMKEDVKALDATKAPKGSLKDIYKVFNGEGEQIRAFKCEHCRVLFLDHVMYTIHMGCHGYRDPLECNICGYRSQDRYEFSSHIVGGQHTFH

Ikaros, sequence (Q03267 other isoform, or with tags, fused parts or gaps): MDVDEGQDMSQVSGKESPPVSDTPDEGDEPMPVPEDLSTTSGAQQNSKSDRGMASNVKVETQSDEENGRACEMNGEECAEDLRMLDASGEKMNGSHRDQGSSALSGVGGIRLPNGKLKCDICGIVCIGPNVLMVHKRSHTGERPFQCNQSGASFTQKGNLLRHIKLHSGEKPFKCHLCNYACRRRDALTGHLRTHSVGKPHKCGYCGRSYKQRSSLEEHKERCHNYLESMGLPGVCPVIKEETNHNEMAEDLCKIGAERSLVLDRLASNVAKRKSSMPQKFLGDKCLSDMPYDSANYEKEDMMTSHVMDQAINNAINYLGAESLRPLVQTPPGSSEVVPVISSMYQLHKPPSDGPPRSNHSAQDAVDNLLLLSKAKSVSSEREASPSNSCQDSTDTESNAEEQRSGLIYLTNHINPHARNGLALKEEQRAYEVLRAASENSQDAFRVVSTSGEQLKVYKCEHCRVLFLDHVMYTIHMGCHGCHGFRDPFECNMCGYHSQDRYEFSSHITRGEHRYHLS

In the case of 4x IkBS2 reporter, the figures for the activity (fold activation) with Ikaros and in the data set with Helios (Mus musculus) were 7.8 and 5, respectively.
